Data published in the DeepSol protein solubility set.

Experiment: soluble on expression in E. coli; label from the status in PepcDB or PDB records

Sequence	soluble on expression in E. coli
MGSDKIHHHHHHMKLSDFIKTEDFKKEKHVPVIEAPEKVKKDEKVQIVVTVGKEIPHPNTTEHHIRWIKVFFQPDGDPYVYEVGRYEFNAHGESVQGPNIGAVYTEPTVTTVVKLNRSGTIIALSYCNIHGLWESSQKITVEE	soluble
MHRIMLSGYLKALVDAGILKERRIKPVTLYSVLRRQDMNIYELTGNAIRSSGSKMDGDTALRLLYAILRRPVFLTEVERCGTKKPLNFETIIWERRKDLIRKLAESGIIIPETDMLVVPKDATADNTIDLISTLLGQVIDLKKYTIPEAEKKQKTLDF	not soluble
MGSDKIHHHHHHMRRALRPSMELISARTSSTSSIWTPRVSQSSELVFDATGCCSSLSGSSACDRGDGIVRGITMDRQRLQALGHKVRMIPAQFVKPHVKSNKSDIIDAEAIAEAATRPTMRFAAIKSEEQADLQALHRVRDQMIGTRTRLINQMGAFCLEYDIALRQGAGLFKLDLPLVLDDLE	not soluble
MTQQGAALQNYNNELVKCIEELCQKREELCRQIQQEEDEKQRLQNEVRQLTEKLARVNENLARKIASRNEFDRTIAETEAAYLKILESSQTLLSVLKREAGNLTKATASDQKSSGGKDS	not soluble
MGSEHAFQGPTSFHVIQTSSFTNSTWAQTQGSGWLDDLQIHGWDSDSGTAIFLKPWSKGNFSDKEVAELEEIFRVYIFGFAREVQDFAGDFQMKYPFEIQGIAGCELHSGGAIVSFLRGALGGLDFLSVKNASCVPSPEGGSRAQKFCALIIQYQGIMETVRILLYETCPRYLLGVLNAGKADLQRQVKPEAWLSSGPSPGPGRLQLVCHVSGFYPKPVWVMWMRGEQEQQGTQLGDILPNANWTWYLRATLDVADGEAAGLSCRVKHSSLEGQDIILYWGPGSGGGLNDIFEAQKIEWH	soluble
MSLPNIDSLFVTRLYRAALSEHGPAIDAKEMEASCYSIAEDDEAGQGWCDENGYPGYTSYASLSDLPWRFPIFADLVKVLDAHVAAFAEDLEFDLDGKELKLEDIWINILPEGGMHASHIHPHSVISGTTYVAMPEGTSALKLEDPRSARMMASPVRRKDARQELRTFIYAKPVVGDVLLWESWLRHEVPMNMSEEDRISVSFNYSWGEGHHHHHH	soluble
MSLPEHTPSDRLALDAMLGKLATYLRMCGYDTAYALDRDAEADDDLLDIAEREDRLVITRDSDLATRAPESVLLSEREIEDQLRELADAGFRLSLAPEPDYCGVCNSPVEEVDPVEPTPEYAPSAGDERVWRCTDCGQHFWKGSHWASVEATLEDVEGHHHHHH	soluble
MRGRQKIAIVGAGLGGAAAATLLQQAGFDVEVFEQAPAFTRLGAGIHIGPNVMKIFRRMGLEQKLELMGSHPDFWFSRDGNTGDYLSRIPLGEFARREYGAAYITIHRGDLHALQIEAIQPGTVHFGKRLEKIVDEGDQVRLDFADGTHTVADIVIGADGIHSKIREELLGAEAPIYSGWVAHRALIRGVNLAQHADVFEPCVKWWSEDRHMMVYYTTGKRDEYYFVTGVPHEAWDFQGAFVDSSQEEMRAAFEGYHPTVQKLIDATESITKWPLRNRNPLPLWSRGRLVLLGDACHPMKPHMAQGACMAIEDAAMLTRCLQETGLSDHRTAFALYEANRKERASQVQSVSNANTWLYSQEDPAWVYGYDLYGQQLESGEAALEHHHHHH	soluble
GSFEEDLSQKNTWWSRGIYELLGYTPFEVEPRAELFFQHIKEPHRTLIKEHYLHLNQSQETQYISEDYEILTKKGEGRWLNSSVKLIRDEKGTLLKAQGAILDVT	not soluble
MEQLYPAPIKTVEEGSPAARAGVRPGDVLLRVNGQPVTDVLAYRHQLERGVVTLEVARPHEAPRVMTGVLEHHHHHH	not soluble
EFRKLGEVCESTNKKTLKISEVSEVKNKGMYPVINSGRDLYGYYHDFNNDGENITIASRGEYAGFINYFNEKFFAGGLCYPYKVKDTNELLTKFLYFYLKTNEIQIMENLVFRGSIPALNKADIETLTIPIPPLEIQQEIVKILDQFSA	not soluble
MSLKKRIPTLLATMIATALYSQQGLAADLASQCMLGVPSYDRPLVQGDTNDLPVTINANHAKGDYPDDAVFTGSVDIMQGNSRLQADEVQLHQKEAPGQPEPVRTVDALGNVHYDDNQVILKGPKGWANLNTKDTNVWEGDYQMVGRQGRGKADLMKQRGENRYTILDNGSFTSCLPGSDTWSVVGSEIIHDREEQVAEIWNARFKVGPVSIFYSPYLQLPVGDKRRSGFLIPNAKYTTTNYFEFYLPYYWNIAPNMDATITPHYMHRRGNIMWENEFRYLSQAGAGLMELDYLPSDKVYEDEHPNDDSSRRWLFYWNHSGVMDQVWRFNVDYTKVSDPSYFNDFDNKYGSSTDGYATQKFSVGYAVQNFNATVSTKQFQVFSEQNTSSYSAEPQLDVNYYQNDVGPFDTRIYGQAVHFVNTRDDMPEATRVHLEPTINLPLSNNWGSINTEAKLLATHYQQTNLDWYNSRNTTKLDESVNRVMPQFKVDGKMVFERDMEMLAPGYTQTLEPRAQYLYVPYRDQSDIYNYDSSLLQSDYSGLFRDRTYGGLDRIASANQVTTGVTSRIYDDAAVERFNISVGQIYYFTESRTGDDNITWENDDKTGSLVWAGDTYWRISERWGLRGGIQYDTRLDNVATSNSSIEYRRDEDRLVQLNYRYASPEYIQATLPKYYSTAEQYKNGISQVGAVASWPIADRWSIVGAYYYDTNANKQADSMLGVQYSSCCYAIRVGYERKLNGWDNDKQHAVYDNAIGFNIELRGLSSNYGLGTQEMLRSNILPYQNTLEGHHHHHH	soluble
MRRELGMGSEWLGEECEIVMGQSPPSETCNTVGIGIPLLNGPTEFGPHHPSPAQFTTDVRKRAIPGDILFCVRGSTTGRMNWADQEYAIGRGIAAIRHKFKPELQPFVRAVIECYLPELLAQATGSTFPNVSAQQLSNLKWPELAADEQRAIAYILGTLDDKIELNRKQNETLEAMARALFKAWFVDFEPVRAKLEGRWQRGQSLPGLPAHLYDLFPDCLVDSELGEIPEGWEIGSFADVVEIIGGSTPKTSVSEYWGGDIPWFSVVDTPASSDVFVVQTEKSITQSGLNESSARLISKGTTIISARGTVGNLAIAGCDMTFNQSCYALRSKNSLGSYFVFLSAQRMVEQLKAMAHGSVFSTITRQTFEAVQTVLPPENVLQQFERSFASLFDEILNNVNESRTLAKLRDTLLPKLISGELRVNDAKRILARIELDTATQRREQ	soluble
MSISFEKLRITLKSVGVPVTRDKAEKGTDYPYIVYSNVSQGKKMASSKVHRRMPYYQISFYTTGTEKDLIALENALEEAGIPYTDFVGIQGDENDDTVTNFYTYVRCIEDGK	soluble
MGSDKIHHHHHHMKIAVINFSGNVGKTTVSRHLLLPRIQGAELISVESVNADEGKTTALRGGQFAELQEYLQTVNSAIVDIGASNVDQLLFLMQSYRGSHEDFDCFVVPTVPPLKQQQDTIATLIDLSRLGVPPSRLKILFNMTEPGRPVEQTFYLLLAYLAQHPIAVPNTACSLGANEIYGRIRGIKSDLGTLARDTTDYKSLIAKAKDATEKLALAQKLATRRLASGVVLELDACFGALDLHALSAGASPTETSAEA	not soluble
MSLRVLKFGGTSVANAERFLRVADILESNARQGQVATVLSAPAKITNHLVAMIEKTISGQDALPNISDAERIFAELLTGLAAAQPGFPLAQLKTFVDQEFAQIKHVLHGISLLGQCPDSINAALICRGEKMSIAIMAGVLEARGHNVTVIDPVEKLLAVGHYLESTVDIAESTRRIAASRIPADHMVLMAGFTAGNEKGELVVLGRNGSDYSAAVLAACLRADCCEIWTDVDGVYTCDPRQVPDARLLKSMSYQEAMELSYFGAKVLHPRTITPIAQFQIPCLIKNTGNPQAPGTLIGASRDEDELPVKGISNLNNMAMFSVSGPGMKGMVGMAARVFAAMSRARISVVLITQSSSEYSISFCVPQSDCVRAERAMQEEFYLELKEGLLEPLAVTERLAIISVVGDGMRTLRGISAKFFAALARANINIVAIAQGSSERSISVVVNNDDATTGVRVTHQMLFNTDQVIEVFVIGVGGVGGALLEQLKRQQSWLKNKHIDLRVCGVANSKALLTNVHGLNLENWQEELAQAKEPFNLGRLIRLVKEYHLLNPVIVDCTSSQAVADQYADFLREGFHVVTPNKKANTSSMDYYHLLRHAAEKSRRKFLYDTNVGAGLPVIENLQNLLNAGDELMKFSGILSGSLSYIFGKLDEGMSFSEATTLAREMGYTEPDPRDDLSGMDVARKLLILARETGRELELADIEIEPVLPAEFNAEGDVAAFMANLSQLDDLFAARVAKARDEGKVLRYVGNIDEDGVCRVKIAEVDGNDPLFKVKNGENALAFYSHYYQPLPLVLRGYGAGNDVTAAGVFADLLRTLSWKLGVEGHHHHHH	soluble
MGWFGFGGNPTDTPSSSAEVSAAPIDLSAGMNFSVPGFDAPAPEPSVPDHSPFPAAPVLALDQLKSAGVGVSRQMTPYVQMDPSMFASQQPQYIMPEGGVAGKGKFEFALGHIGWAVGGAFGVGCARGALGELMNPETRKMVGKPWMTRMVNATMKHGSGFAQPSGAIVFMYSALEIGLRSVRAEDELNGFGAGALTGAIYRSPHGLKASGVGALVGLGIAAAWTLSSTDSRQRLSEMFSNH	soluble
MAVGAALPPIPEGAPVLIAGPTASGKSALALEIAERFGGVIVNADASQVYDCWRAISARPSPEEEARAPHLLYGHLPYDAPYSAGHWLREVTPLLDGTARPIIVGGTGLYFTALTEGMADIPATPPDVRAEADTLPLDRLLAGIDPATAAGLDRNNRARVQRAWEVERATGRALHLWQADTPPPPLPLARTVPLVLEVDKLWLWDRIARRFDQMLDQGALDEVAAMAARYDPALPAFKAIGVPELMAHLRGEITLDAARERASIATRQYAKRQRSWFRARMGDWHRLPVGGLEHHHHHH	not soluble
MNINEILKKLINKSDLEINEAEELAKAIIRGEVPEILVSAILVALRMKGESKNEIVGFARAMRELAIKIDVPNAIDTAGTGGDGLGTVNVSTASAILLSLVNPVAKHGNRAVSGKSGSADVLEALGYNIIVPPERAKELVNKTNFVFLFAQYYHPAMKNVANVRKTLGIRTIFNILGPLTNPANAKYQLMGVFSKDHLDLLSKSAYELDFNKIILVYGEPGIDEVSPIGNTFMKIVSKRGIEEVKLNVTDFGISPIPIEKLIVNSAEDSAIKIVRAFLGKDEHVAEFIKINTAVALFALDRVGDFREGYEYADHLIEKSLDKLNEIISMNGDVTKLKTIVVKSSG	soluble
MDTLQFQKNPETAAKMSAYMKHQFVFAGIPAPERQALSKQLLKESHTWPKEKLCQEIEAYYQKTEREYQYVAIDLALQNVQRFSLEEVVAFKAYVPQKAWWDSVDAWRKFFGSWVALHLTELPTIFALFYGAENFWNRRVALNLQLMLKEKTNQDLLKKAIIYDRTTEEFFIQKAIGWSLRQYSKTNPQWVEELMKELVLSPLAQREGSKYLAKASE	soluble
MEVTDVRLRRVNTEGRMRAIASITLDHEFVVHDIRVIDGNNGLFVAMPSKRTPDGEFRDIAHPINSGTRSKIQDAVLTEYHRLGELEEVEFEEAGAS	not soluble
MTDKQYSLDDIRLRLNELDDQLLNLLSERRKMSIEVAKSKVETAKPVRDPAREQQLLVKLINAGKEKYQLDPQYITKIFHTIIEDSVLLQQSYLQNLANPQSRKPLARVAFLGAKGSYSHLATREYFSRKNTELIELNCDHFKEVARTVESGHADYGVLPIENTSSGSINEVYDLLQHTTLYIVGELTQPIEHCLVATQEIRLEDLKVLYSHPQPHQQCSEFLSRLKGVKLESCASTADAMKKVQELNRADVAAIGNSASGKLYGLQPIQGNIANQTENHTRFIVVARKPVDVSPQIPAKTTLIMSTSQEAGSLVSTLLVLQRYGINMTKLESRPIMGNPWEEMFYVDLEAHIDSDEMQQALAELTQLTRHLKVLGCYPSENVKPTQVKFI	not soluble
